Assay [1] addresses T1, Grb7-SH2 domain-GST (SH2 domain of human Grb7 containing a GST fusion tag) (human, UniProt Q14451 415-532).
T1 construct: domain: SH2 domain; Purified from E. coli; also called Grb7-SH2-GST; not shown: glutathione-S-transferase (GST) fusion tag
Description: assay not described (sentence of Example 3).

The target in assay [2] is T1, Grb7-SH2 domain-GST (SH2 domain of …). Kind of assay: competition ELISA on Grb7-SH2-GST; competitor G7-8NA peptide-phage (FIG. 5B). From the text:
(§1) Unbound phage were washed away with Tween-TBS buffer and bound phage were detected with anti-M13-horseradish peroxidase (Amersham-Pharmacia Biotech) and ABTS substrate (Calbiochem). […] Plates were read at OD₄₀₅.

Assay [3] has as its target T2, GST alone (UniProt P08515 1-218 = GST).
T2 construct: Control protein coated on the ELISA plate; also called fusion protein (GST)
Description: phage ELISA on coated protein (FIG. 1). From the text:
(§2) The overall methodology of an ELISA is well established. […] Non-specific binding was blocked by casein. Binding of phage was detected using an anti-phage antibody conjugated to horseradish peroxidase.
On the technique in general: An ELISA detects its analyte on a solid surface through an enzyme-linked reagent.

In assay [4] the target is T3, BSA (UniProt P02769 25-607).
T3 construct: also called bovine serum albumin
T3 sequence (P02769 25-607 limits assumed): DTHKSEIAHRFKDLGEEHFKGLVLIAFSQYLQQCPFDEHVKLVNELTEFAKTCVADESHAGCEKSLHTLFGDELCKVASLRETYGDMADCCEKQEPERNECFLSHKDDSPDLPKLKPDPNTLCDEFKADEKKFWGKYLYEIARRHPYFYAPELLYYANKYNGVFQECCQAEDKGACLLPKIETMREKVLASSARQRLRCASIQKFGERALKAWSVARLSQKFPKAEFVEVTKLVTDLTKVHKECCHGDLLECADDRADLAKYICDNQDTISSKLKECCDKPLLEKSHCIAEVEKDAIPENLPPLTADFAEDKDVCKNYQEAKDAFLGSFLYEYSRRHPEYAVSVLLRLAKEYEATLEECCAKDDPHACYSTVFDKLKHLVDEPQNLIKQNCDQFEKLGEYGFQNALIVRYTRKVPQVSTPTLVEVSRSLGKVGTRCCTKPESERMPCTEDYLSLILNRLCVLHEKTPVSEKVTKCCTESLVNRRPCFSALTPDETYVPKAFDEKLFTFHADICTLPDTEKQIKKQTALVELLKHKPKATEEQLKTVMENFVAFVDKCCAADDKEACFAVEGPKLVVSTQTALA
Kind of assay: phage ELISA on coated protein (FIG. 1).
From the text: as §2

Assay [5] concerns the target T1, Grb7-SH2 domain-GST (SH2 domain of …). Description: phage ELISA (legend of FIG. 1).
From the text: as §2

Assay [6] concerns the target T4, Grb2-GST (UniProt P62993 1-217).
T4 construct: also called full length Grb2; not shown: glutathione-S-transferase (GST) fusion partner
Description: phage ELISA (FIG. 4).

In assay [7] the target is T5, Grb14-SH2-GST (UniProt Q14449 423-540).
T5 construct: domain: SH2 domain; also called SH2 domain of Grb14; not shown: glutathione-S-transferase (GST) fusion partner
T5 sequence (looked up): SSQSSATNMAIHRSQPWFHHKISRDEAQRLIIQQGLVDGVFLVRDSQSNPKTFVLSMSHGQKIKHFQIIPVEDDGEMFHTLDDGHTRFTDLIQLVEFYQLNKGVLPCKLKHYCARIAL
Description: phage ELISA (FIG. 4).

Assay [8] concerns the target T4, Grb2-GST. Description: phage ELISA on coated protein (FIG. 1).
From the text: as §2

Assay [9] deals with T1, Grb7-SH2 domain-GST (SH2 domain of …). Kind of assay: phage ELISA on coated Grb7-SH2 domain-GST, anti-phage-HRP (FIG. 1).
From the text: as §2

Assay [10] shares this target. Description: competition ELISA on Grb7-SH2-GST; competitor G7-18 peptide-phage (FIG. 5A).
From the text: as §1

For assay [11] the target is unchanged. Kind of assay: competition ELISA on Grb7-SH2-GST; free peptide 1, 10, 100 uM; competitor G7-18 peptide-phage (FIG. 5A).
From the text: as §1

Assay [12] concerns the target T4, Grb2-GST. Kind of assay: competition ELISA against Grb2-binding peptide-phage (data not shown).

Positions of bridges follow the written chain, without caps; N, C: chain ends. No end group written: not given here.

Experimental findings from US20030105000A1 (UNIVERSITY OF VERMONT AND STATE AGRICULTURAL COLLEGE, published 2003) are described below.

T1 sequence (Q14451 415-532): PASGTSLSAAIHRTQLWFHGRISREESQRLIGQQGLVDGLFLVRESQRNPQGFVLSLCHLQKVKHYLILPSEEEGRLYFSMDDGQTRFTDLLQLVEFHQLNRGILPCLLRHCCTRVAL
T4 sequence (P62993 whole entry, the tested form may be a part): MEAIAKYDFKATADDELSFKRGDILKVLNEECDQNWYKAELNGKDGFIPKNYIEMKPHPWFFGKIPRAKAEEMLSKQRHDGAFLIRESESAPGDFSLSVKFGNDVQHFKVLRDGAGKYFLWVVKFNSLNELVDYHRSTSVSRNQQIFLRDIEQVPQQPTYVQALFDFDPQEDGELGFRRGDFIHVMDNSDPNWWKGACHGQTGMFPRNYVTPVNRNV
T2 sequence (P08515 whole entry, the tested form may be a part): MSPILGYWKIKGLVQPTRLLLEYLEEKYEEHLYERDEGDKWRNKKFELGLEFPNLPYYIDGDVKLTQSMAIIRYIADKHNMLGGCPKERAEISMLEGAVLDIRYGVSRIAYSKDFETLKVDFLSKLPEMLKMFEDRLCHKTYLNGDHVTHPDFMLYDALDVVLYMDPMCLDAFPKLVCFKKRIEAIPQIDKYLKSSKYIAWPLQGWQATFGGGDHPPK

B1: G7BP-7NA (peptide)
peptide: CGYIGYDNIFEC
modifications: disulfide 1-12 (inferred)
Turning to B1, in [1], the binding result is recorded as “binds”.

B2: G7-8NATE free synthetic peptide (peptide)
peptide: VFWGYANDWLC
modifications: non-phosphorylated; thioether bond between the ends of the peptide (N-terminal cysteine replaced by another functional group)
notes: Lacks the arms; also called G7BP-4NATE
On to B2, for which, in [2], the binding result is “binds”.

B3: G7BP-2 peptide-phage clone (peptide, not shown: large carriers)
peptide: KLFWCTYEDYANEWPCPGYS
modifications: disulfide 5-16; also: displayed on phage gene III protein
notes: Tested as a phage clone displaying the peptide on the gene III protein
In the case of B3, the binding result in [3] is given as “no binding”; in [4], “no binding”; in assay [5], “binds”; in [6], “no binding”; in assay [7] it was “no binding”.

B4: G7BP-5NA (peptide)
peptide: CWFEGYDNTFPC
notes: also called G7-18NA
For B4, the binding result in [1] is given as “binds”.

B5: G7BP-6NA (peptide)
peptide: CNEELYENCGGC
modifications: disulfide (positions not given here); not fully specified
For B5, the binding result in assay [1] is “binds”.

B6: G7BP-5 peptide-phage clone (peptide, not shown: large carriers)
peptide: RSTLCWFEGYDNTFPCKYFR
modifications: disulfide 5-16; also: displayed on phage gene III protein
notes: Tested as a phage clone; also called G7-18 peptide-phage
In the case of B6, the binding result in assay [8] is recorded as “no binding”; in [3], “no binding”; in assay [4] it was “no binding”; in assay [7] it was “no binding”; in assay [9] it was “binds”.

B7: G7-18NATE free synthetic peptide (peptide)
peptide: WFEGYDNTFPC
modifications: non-phosphorylated; thioether bond between the ends of the peptide (N-terminal cysteine replaced by another functional group)
notes: Lacks the 4-residue arms on both sides; cyclised by a thioether; also called G7BP-5NATE; G7-18NATE (thioether)
As for B7, in [10], the binding result is “binds”.

B8: G7BP-3 peptide-phage clone (peptide, not shown: large carriers)
peptide: NVSECIYIHYDNWSLCGVEV
modifications: disulfide 5-16; also: displayed on phage gene III protein
notes: as for B3
B8: the binding result was “no binding” in [8]; “no binding” in [3]; “no binding” in [4]; “no binding” in [7]; “binds” in assay [9].

B9: G7-18 free synthetic peptide (peptide)
peptide: RSTLCWFEGYDNTFPCKYFR
modifications: disulfide 5-16 (inferred)
notes: Free synthetic peptide, not on phage; also called G7BP-5; G7-18 (disulfide)
For B9, the figures for the binding result in assay [11] and in [12] were “binds” and “no binding”, respectively.

B10: G7BP-3NA (peptide)
peptide: CIYIHYDNWSLC
modifications: disulfide 1-12 (inferred)
As for B10, in [1], the binding result is “binds”.

B11: G7-8 free synthetic peptide (peptide)
peptide: GVSNCVFWGYANDWLCSDYS
modifications: disulfide 5-16 (inferred)
notes: Free synthetic peptide, not on phage; also called G7BP-4
B11: the binding result in [11] is given as “binds”; in [12] it was “no binding”.

B12: G7BP-4 peptide-phage clone (peptide, not shown: large carriers)
peptide: GVSNCVFWGYANDWLCSDYS
modifications: disulfide 5-16; also: displayed on phage gene III protein
notes: Tested as a phage clone displaying the peptide on the gene III protein; also called G7-8 peptide-phage
B12: the binding result is given as “no binding” in assay [8]; “no binding” in assay [3]; “no binding” in assay [4]; “no binding” in assay [7]; “binds” in assay [9].

B13: G7BP-1NA (peptide)
peptide: CKYLYYDNDYLC
modifications: disulfide 1-12 (inferred)
B13: the binding result in [1] was “binds”.

B14: G7BP-7 peptide-phage clone (peptide, not shown: large carriers)
peptide: RTSPCGYIGYDNIFECTYLG
modifications: disulfide 5-16; also: displayed on phage gene III protein
notes: as for B3
Consider B14, for which the binding result is “no binding” in [8]; “no binding” in assay [3]; “no binding” in assay [4]; “no binding” in assay [7]; “binds” in assay [9].

B15: G7BP-6 peptide-phage clone (peptide, not shown: large carriers)
peptide: FCAVCNEELYENCGGCSVGK
modifications: disulfide 5-16; cysteine pairing not given here; also: displayed on phage gene III protein
notes: as for B3
B15: the binding result in assay [8] is “no binding”; in assay [3] it was “no binding”; in assay [4] it was “no binding”; in assay [7], “no binding”; in assay [9], “binds”.
